From paper PMC9972320

Target: MSI1 RRM12 (human) (UniProt O43347)
Test: ITC
Details: ITC: 20 mM HEPES pH 7.5, 150 mM NaCl, 3 mM MgCl2, 25 C
[1] = 30 uM RNA in cell, 600 uM protein titrant

Sequence of MSI1 RRM12 (human) (O43347 20-191): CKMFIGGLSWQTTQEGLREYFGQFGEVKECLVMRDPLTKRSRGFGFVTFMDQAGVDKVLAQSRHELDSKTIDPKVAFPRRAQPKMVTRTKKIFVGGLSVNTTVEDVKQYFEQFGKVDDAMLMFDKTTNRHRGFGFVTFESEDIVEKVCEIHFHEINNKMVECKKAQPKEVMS

Substance	Kd [1]	Kd	further results
DENV4 3'UTR	336 µM	–	–
ZIKV 3'UTR WT	–	2.5 µM	–
USUV 3'UTR	301 µM	–	–
JEV 3'UTR	218 µM	–	–
MVEV 3'UTR	265 µM	–	–
ZIKV xrRNA2 deltaP4	–	5.7 µM	–
ZIKV 3'SL	–	65.5 µM	–
ZIKV xrRNA1	–	–	Kd ([…]): 94.6 µM
